Experimental data reported in patent US20140140975A1.

Columns and labels:
recombinant human GRX1 = recombinant human GRX1 (UniProt P35754)
[1] = target: Fas death receptor (mouse) (UniProt P25446); assay: cell-based or functional assay
Chain of UniProt P25446 (P25446 22-327): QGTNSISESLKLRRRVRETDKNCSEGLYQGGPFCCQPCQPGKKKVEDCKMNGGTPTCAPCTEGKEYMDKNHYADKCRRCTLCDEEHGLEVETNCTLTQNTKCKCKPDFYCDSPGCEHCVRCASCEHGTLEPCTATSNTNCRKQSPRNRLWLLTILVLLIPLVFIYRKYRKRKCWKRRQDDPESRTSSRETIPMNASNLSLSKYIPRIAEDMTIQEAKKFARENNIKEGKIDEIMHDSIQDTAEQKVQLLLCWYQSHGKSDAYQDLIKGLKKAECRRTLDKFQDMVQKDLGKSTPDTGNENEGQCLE

Chain of UniProt P35754 (P35754 whole entry): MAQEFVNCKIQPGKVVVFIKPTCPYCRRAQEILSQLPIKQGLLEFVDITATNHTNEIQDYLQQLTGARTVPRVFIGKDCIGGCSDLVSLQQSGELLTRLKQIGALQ

recombinant Caspase 3 was tested, and the “cleavage of GRX1 (Western Blotting)” value (recombinant human GRX1) was “Treatment of recombinant human GRX1 with recombinant Caspase 8 or 3 results in cleavage of GRX1”.
For recombinant Caspase 8, the “cleavage of GRX1 (Western Blotting)” value (recombinant human GRX1) was “Treatment of recombinant human GRX1 with recombinant Caspase 8 or 3 results in cleavage of GRX1”.
For Fas Ligand, the catalytic activity of GRX1 in lung epithelial cells [1] was 50 % decrease.
